# ChEMBL document CHEMBL1250451, “Mechanistic insights into a Ca2+-dependent family of alpha-mannosidases in a human gut symbiont” (Nat Chem Biol, 2010)
# B1: Alpha-1,2-mannosidase (BT_3990) (Bacteroides thetaiotaomicron), Q8A0N1 D644A (protein)
# chain: MKRLLLIACILNCTLLSQAKDWTQYVNPLMGSQSTFELSTGNTYPAIARPWGMNFWTPQTGKMGDGWQYTYTANKIRGFKQTHQPSPWINDYGQFSIMPIVGQPVFDEEKRASWFAHKGEVATPYYYKVYLAEHDIVTEMTPTERAVLFRFTFPENDHSYVVVDAFDKGSYIKIIPEENKIIGYTTRNSGGVPENFKNYFIIEFDKPFTYKATVENGNLQENVAEQTTDHAGAIIGFKTRKGEQVNARIASSFISFEQAAANMNELGKDNIEQLAQKGKDAWNQVLGKIEVEGGNLDQYRTFYSCLYRSLLFPRKFYELDANGQPIHYSPYNGQVLPGYMFTDTGFWDTFRCLFPLLNLMYPSVNKEMQEGLINTYLESGFFPEWASPGHRGCMVGNNSASILVDAYMKGVKVDDIKTLYEGLIHGTENVHPEVSSTGRLGYEYYNKLGYVPYDVKINENAARTLEYAYDDWCIYRLAKELKRPKKEISLFAKRAMNYKNLFDKESKLMRGRNEDGTFQSPFSPLKWGDAFTEGNSWHYTWSVFHDPQGLIDLMGGKEMFVTMMDSVFAVPPIFDDSYYGQVIHEIREMTVMNMGNYAHGNQPIQHMIYLYDYAGQPWKAQYWLRQVMDRMYTPGPDGYCGDEANGQTSAWYVFSALGFYPVCPGTDEYVMGTPLFKKATLHFENGNSLVIDAPNNSTENFYIDSMSFNGADHTKNYLRHEDLFKGGTIKVDMSNRPNLNRGTKEEDMPYSFSKE
# B2: Alpha-1,2-mannosidase (BT_3990) (Bacteroides thetaiotaomicron), Q8A0N1 E585A (protein)
# chain: MKRLLLIACILNCTLLSQAKDWTQYVNPLMGSQSTFELSTGNTYPAIARPWGMNFWTPQTGKMGDGWQYTYTANKIRGFKQTHQPSPWINDYGQFSIMPIVGQPVFDEEKRASWFAHKGEVATPYYYKVYLAEHDIVTEMTPTERAVLFRFTFPENDHSYVVVDAFDKGSYIKIIPEENKIIGYTTRNSGGVPENFKNYFIIEFDKPFTYKATVENGNLQENVAEQTTDHAGAIIGFKTRKGEQVNARIASSFISFEQAAANMNELGKDNIEQLAQKGKDAWNQVLGKIEVEGGNLDQYRTFYSCLYRSLLFPRKFYELDANGQPIHYSPYNGQVLPGYMFTDTGFWDTFRCLFPLLNLMYPSVNKEMQEGLINTYLESGFFPEWASPGHRGCMVGNNSASILVDAYMKGVKVDDIKTLYEGLIHGTENVHPEVSSTGRLGYEYYNKLGYVPYDVKINENAARTLEYAYDDWCIYRLAKELKRPKKEISLFAKRAMNYKNLFDKESKLMRGRNEDGTFQSPFSPLKWGDAFTEGNSWHYTWSVFHDPQGLIDLMGGKEMFVTMMDSVFAVPPIFDDSYYGQVIHAIREMTVMNMGNYAHGNQPIQHMIYLYDYAGQPWKAQYWLRQVMDRMYTPGPDGYCGDEDNGQTSAWYVFSALGFYPVCPGTDEYVMGTPLFKKATLHFENGNSLVIDAPNNSTENFYIDSMSFNGADHTKNYLRHEDLFKGGTIKVDMSNRPNLNRGTKEEDMPYSFSKE
# B3: Alpha-1,2-mannosidase (BT_3990) (Bacteroides thetaiotaomicron), Q8A0N1 E643A (protein)
# chain: MKRLLLIACILNCTLLSQAKDWTQYVNPLMGSQSTFELSTGNTYPAIARPWGMNFWTPQTGKMGDGWQYTYTANKIRGFKQTHQPSPWINDYGQFSIMPIVGQPVFDEEKRASWFAHKGEVATPYYYKVYLAEHDIVTEMTPTERAVLFRFTFPENDHSYVVVDAFDKGSYIKIIPEENKIIGYTTRNSGGVPENFKNYFIIEFDKPFTYKATVENGNLQENVAEQTTDHAGAIIGFKTRKGEQVNARIASSFISFEQAAANMNELGKDNIEQLAQKGKDAWNQVLGKIEVEGGNLDQYRTFYSCLYRSLLFPRKFYELDANGQPIHYSPYNGQVLPGYMFTDTGFWDTFRCLFPLLNLMYPSVNKEMQEGLINTYLESGFFPEWASPGHRGCMVGNNSASILVDAYMKGVKVDDIKTLYEGLIHGTENVHPEVSSTGRLGYEYYNKLGYVPYDVKINENAARTLEYAYDDWCIYRLAKELKRPKKEISLFAKRAMNYKNLFDKESKLMRGRNEDGTFQSPFSPLKWGDAFTEGNSWHYTWSVFHDPQGLIDLMGGKEMFVTMMDSVFAVPPIFDDSYYGQVIHEIREMTVMNMGNYAHGNQPIQHMIYLYDYAGQPWKAQYWLRQVMDRMYTPGPDGYCGDADNGQTSAWYVFSALGFYPVCPGTDEYVMGTPLFKKATLHFENGNSLVIDAPNNSTENFYIDSMSFNGADHTKNYLRHEDLFKGGTIKVDMSNRPNLNRGTKEEDMPYSFSKE
# Columns and labels:
# Assay type in all cases: protein assay; call rule not given here
# [1] = substrate: O=[N+]([O-])c1ccc(O[C@H]2O[C@H](CO)[C@@H](O)[C@H](O)[C@@H]2O)cc1; test: (§1) Ratio of Kcat to Km for Bacteroides thetaiotaomicron GH92 alpha-mannosidase 3990 D644A mutant assessed as as mannose release after 16 hrs by HPLC relative to wild type enzyme
# [2] = substrate: OC[C@H]1O[C@H](O[C@H]2[C@@H](O)[C@H](O)[C@@H](CO)O[C@@H]2O)[C@@H](O)[C@@H](O)[C@@H]1O; test: as §1
# [3] = substrate: O=[N+]([O-])c1ccc(O[C@H]2O[C@H](CO)[C@@H](O)[C@H](O)[C@@H]2O)c([N+](=O)[O-])c1; test: as §1
# [4] = substrate: O=[N+]([O-])c1ccc(O[C@H]2O[C@H](CO)[C@@H](O)[C@H](O)[C@@H]2O)cc1; test: (§2) Activity of Bacteroides thetaiotaomicron GH92 alpha-mannosidase 3990 D644A mutant assessed as as mannose release after 16 hrs by HPLC relative to wild type enzyme
# [5] = substrate: OC[C@H]1O[C@H](O[C@H]2[C@@H](O)[C@H](O)[C@@H](CO)O[C@@H]2O)[C@@H](O)[C@@H](O)[C@@H]1O; test: as §2
# [6] = substrate: O=[N+]([O-])c1ccc(O[C@H]2O[C@H](CO)[C@@H](O)[C@H](O)[C@@H]2O)cc1; test: (§3) Ratio of Kcat to Km for Bacteroides thetaiotaomicron GH92 alpha-mannosidase 3990 E585A mutant assessed as as mannose release after 16 hrs by HPLC relative to wild type enzyme
# [7] = substrate: OC[C@H]1O[C@H](O[C@H]2[C@@H](O)[C@H](O)[C@@H](CO)O[C@@H]2O)[C@@H](O)[C@@H](O)[C@@H]1O; test: as §3
# [8] = substrate: O=[N+]([O-])c1ccc(O[C@H]2O[C@H](CO)[C@@H](O)[C@H](O)[C@@H]2O)c([N+](=O)[O-])c1; test: as §3
# [9] = substrate: O=[N+]([O-])c1ccc(O[C@H]2O[C@H](CO)[C@@H](O)[C@H](O)[C@@H]2O)cc1; test: (§4) Activity of Bacteroides thetaiotaomicron GH92 alpha-mannosidase 3990 E585A mutant assessed as as mannose release after 16 hrs by HPLC relative to wild type enzyme
# [10] = substrate: OC[C@H]1O[C@H](O[C@H]2[C@@H](O)[C@H](O)[C@@H](CO)O[C@@H]2O)[C@@H](O)[C@@H](O)[C@@H]1O; test: as §4
# [11] = substrate: O=[N+]([O-])c1ccc(O[C@H]2O[C@H](CO)[C@@H](O)[C@H](O)[C@@H]2O)cc1; test: (§5) Ratio of Kcat to Km for Bacteroides thetaiotaomicron GH92 alpha-mannosidase 3990 E643A mutant assessed as as mannose release after 16 hrs by HPLC relative to wild type enzyme
# [12] = substrate: OC[C@H]1O[C@H](O[C@H]2[C@@H](O)[C@H](O)[C@@H](CO)O[C@@H]2O)[C@@H](O)[C@@H](O)[C@@H]1O; test: as §5
# [13] = substrate: O=[N+]([O-])c1ccc(O[C@H]2O[C@H](CO)[C@@H](O)[C@H](O)[C@@H]2O)c([N+](=O)[O-])c1; test: as §5
# [14] = substrate: O=[N+]([O-])c1ccc(O[C@H]2O[C@H](CO)[C@@H](O)[C@H](O)[C@@H]2O)cc1; test: (§6) Activity of Bacteroides thetaiotaomicron GH92 alpha-mannosidase 3990 E643A mutant assessed as as mannose release after 16 hrs by HPLC relative to wild type enzyme
# [15] = substrate: OC[C@H]1O[C@H](O[C@H]2[C@@H](O)[C@H](O)[C@@H](CO)O[C@@H]2O)[C@@H](O)[C@@H](O)[C@@H]1O; test: as §6
protein,measurement,setting,value
B1,kcat/Km,[1],Not Active
same,kcat/Km,[2],1.27 M⁻¹ s⁻¹
same,kcat/Km,[3],0.0167 M⁻¹ s⁻¹
same,Km,[4],Not Active
same,kcat,[4],Not Active
same,Km,[5],620 µM
same,kcat,[5],0.000783 s⁻¹
B2,kcat/Km,[6],5.5 M⁻¹ s⁻¹
same,kcat/Km,[7],3.17 M⁻¹ s⁻¹
same,kcat/Km,[8],9330 M⁻¹ s⁻¹
same,Km,[9],Not Active
same,kcat,[9],Not Active
same,Km,[10],2300 µM
same,kcat,[10],0.00733 s⁻¹
B3,kcat/Km,[11],Not Active
same,kcat/Km,[12],13.2 M⁻¹ s⁻¹
same,kcat/Km,[13],0.25 M⁻¹ s⁻¹
same,Km,[14],Not Active
same,kcat,[14],Not Active
same,Km,[15],Not Active
same,kcat,[15],Not Active
